Measured values as given in the DeepSol protein solubility set.

Experiment: soluble on expression in E. coli; label from the status in PepcDB or PDB records

Sequence	soluble on expression in E. coli
MGSDKIHHHHHHMYIGCNWSKALKFLLEKDEVKIDYIKAGAYGDFENEFSTMRSMKPILIHGLGKFERTGMKDINLVDFDRANSIIKRCSSPHFGIHLEIKNSDMYEGMRDENIYEYMCKQIQTFKKNIEVPLLLENVPDSPIEHTVFDCYPYFQPKKLTKLFLDNNVDFLLDLTHAKITSKYHKIDVHEYLNGLPLERVREIHVNGSGYDEEGFPMDTHSSMEKEDYDLLRWVLTYSKPYVVTLEYAGTKKEKEADIIASLKTQLREIQNIIISR	not soluble
MAPPEGGEYLHKVTANSMSVNGDVPETVTAALADQRVEGRVCLEAGAGVGNTTAGLLAAGAKRVYAVTNDADHAATVRDRIGDRNADRLAVIEADLRATPLATDSVDLVAAHGLCNVLPPAELAPIAAELTRVAKPDGCLVVDDYAVPPADAAVNRLFALENAAARVVDGRPVLTFYPPAVLVAVFAANGWSVERRKTLLNPVPWTEAHLDAHAEVVREYAAALPDSLGEPLTAMAEDLVAAIGSERTGTMYSLAFRRADA	not soluble
MGKLNLYQMKKVEIIVRGEDLDFVLDLLEKAGVKGYTIIHNLSGKGSHGFHEGHLLFNEEDVLDMVISVMPEEKVEAILEGLTPFFNKHSGVVFVSDVQVSRLEKFKNG	not soluble
MGSDKIHHHHHHMRNAVIFTGIPMQYPLELTFKFWALAPQISVIDAQGNLVFYVKQKLFKLKEAITIFADVERTRPLYYIKADRIIDFSARYEFTDSNGTNIGAVKRRGLKSLWRARYDIFDGDTTTLNIQEKNPWVKIADALFAEIPIVGIFTGYVFNPVYLVSRSDGTVVMRLEKIPSFLSRKFTIKQVDQISDREEQQVLLSLMMMLLLERNRG	not soluble
MGSDKIHHHHHHMTTPFKRIHLIVMDSVGIGEGPDAAAFNDEGSHTLKHTLEGFKQKLPHLEQLGLGNIAPLPVVSKVTHPGAFYTKLSEASVGKDTMTGHWEIMGLNIMQPFKVYPNGFPAELVKEIESMTGRKVVANRPASGTQIIDEWGEHQMKTGDLIVYTSADPVLQIAAHEDVIPLEELYEICEKVRELTKDPKYLIGRIIARPYVGEPGNFTRTSNRHDYALKPFGRTVMNSLKDSGYDVIAIGKINDIYDGEGVTEAIRTKNNMDGMDQLIEVVKKDFEGISFLNLVDFDALYGHRRDKEGYAQAIKDFDLRLPELMNHLREDDLVIITADHGNDPIAKGTDHTREYIPLLMFSPKIKDYHELSQDTTFSSIGVTIADNFNVELPKYGKSYLKEMGVEHQ	not soluble
MFRAGEASKRPLPGPSPPRVRSVEVARGRAGYGFTLSGQAPCVLSCVMRGSPADFVGLRAGDQILAVNEINVKKASHEDVVKLIGKCSGVLHMVIAEGVGRFESCSSDEEGGLYEGKGWLKPKLDSKALGINRAERVVEEMQSGGIFNMIFENPSLCASNSEPLKLKQRSLSESAATRFDVGHESINNPNPNMLSKEEISKVIHDDSVFSIGLESHDDFALDASILNVAMIVGYLGSIELPSTSSNLESDSLQAIRGCMRRLRAEQKIHSLVTMKIMHDCVQLSTDKAGVVAEYPAEKLAFSAVCPDDRRFFGLVTMQTNDDGSLAQEEEGALRTSCHVFMVDPDLFNHKIHQGIARRFGFECTADPDTNGCLEFPASSLPVLQFISVLYRDMGELIEGMRARAFLDGDADAHQNNSTSSNSDSGIGNFHQEEKSNRVLVVDLGGSSSRHGPGGSAWDGVGGRGAQPWGAPWTGPFCPDPEGSPPFEAAHQTDRFWDLNKHLGPASPVEVPPASLRSSVPPSKRGTVGAGCGFNQRWLPVHVLREWQCGHTSDQDSYTDSTDGWSSINCGTLPPPMSKIPADRYRVEGSFAQPPLNAPKREWSRKAFGMQSIFGPHRNVRKTKEDKKGSKFGRGTGLTQPSQRTSARRSFGRSKRFSITRSLDDLESATVSDGELTGADLKDCVSNNSLSSNASLPSVQSCRRLRERRVASWAVSFERLLQDPVGVRYFSDFLRKEFSEENILFWQACEYFNHVPAHDKKELSYRAREIFSKFLCSKATTPVNIDSQAQLADDVLRAPHPDMFKEQQLQIFNLMKFDSYTRFLKSPLYQECILAEVEGRALPDSQQVPSSPASKHSLGSDHSSVSTPKKLSGKSKSGRSLNEELGDEDSEKKRKGAFFSWSRTRSTGRSQKKREHGDHADDALHANGGLCRRESQGSVSSAGSLDLSEACRTLAPEKDKATKHCCIHLPDGTSCVVAVKAGFSIKDILSGLCERHGINGAAADLFLVGGDKPLVLHQDSSILESRDLRLEKRTLFRLDLVPINRSVGLKAKPTKPVTEVLRPVVARYGLDLSGLLVRLSGEKEPLDLGAPISSLDGQRVVLEEKDPSRGKASADKQKGVPVKQNTAVNSSSRNHSATGEERTLGKSNSIKIKGENGKNARDPRLSKREESIAKIGKKKYQKINLDEAEEFFELISKAQSNRADDQRGLLRKEDLVLPEFLRLPPGSTELTLPTPAAVAKGFSKRSATGNGRESASQPGEQWEPVQESSDSPSTSPGSASSPPGPPGTTPPGQKSPSGPFCTPQSPVSLAQEGTAQIWKRQSQEVEAGGIQTVEDEHVAELTLMGEGDISSPNSTLLPPPSTPQEVPGPSRPGTSRF	soluble
MMMDLNIRRVVLDVDKGLNRPTLVELAAAIEKVQGVEAVNIIVTEMDMETMGTNITVEGTNINYDELIETIENTGSAIHSVDEIAVGKRLIENVRR	not soluble
VDSVFVVGHKNLDMDALGASVGMQAFANNIIEHAAYAVYDEDSMSHDVARAVNRLKEDGHTQLLTVKESIEQVSDNSLLVMVDHSKLQLTLSRELYNKFTEVIVIDHHRRDDDFPENAILTFIESGASSASELVTELLQFQNGKYHLNKIQASIVMAGIMLDTKSFSTRVTSRTFDVASYLRTLGSDNVEIQNISALDF	not soluble
MQLKRVAEAKLPTPLGDFLMVGFEELATGHDHAALVFGDISGKTPVLARVHSECLTGDALFSLRCDCGFQLEAALTHIAEEGRGILIYHRQEGRNIGLLNKIRAYALQDQGYDTVEANHQLGFAADERDFTLCADMFKLLGVDEVRLLTNNPKKVEILTEAGINIVERVPLIVGRNPNNEHYLDTKAAKMGHLLSKLEHHHHHH	soluble
MSLMRDITPDLCDKYESQVTLLNLPLQNFGQRSAFWGEIVTVRCYHDNSKVRDVLSQNGKGKVLVVDGHGSCHKALMGDQLAILAIKNDWEGVIIYGAVRDVVAMSEMDLGIKALGTSPFKTEKRGAGQVNVTLTMQNQIVEPGDYLYADWNGILMSETALDVAEGGSHHHHHH	soluble
MGSDKIHHHHHHMIFELPDTTTQQISKTLTRLRESGTQVTTGRVLTLIVVTDSESDVAAVTESTNEASREHPSRVIILVVGDKTAENKVDAEVRIGGDAGASEMIIMHLNGPVADKLQYVVTPLLLPDTPIVAWWPGESPKNPSQDPIGRIAQRRITDALYDRDDALEDRVENYHPGDTDMTWARLTQWRGLVASSLDHPPHSEITSVRLTGASGSTSVDLAAGWLARRLKVPVIREVTDAPTVPTDEFGTPLLAIQRLEIVRTTGSIIITIYDAHTLQVEMPESGNAPSLVAIGRRSESDCLSEELRHMDPDLGYQHALSGLSSVKLETV	not soluble
MATLTEDDVLEQLDAQDNLFSFMKTAHSILLQGIRQFLPSLFVDNDEEIVEYAVKPLLAQSGPLDDIDVALRLIYALGKMDKWLYADITHFSQYWHYLNEQDETPGFADDITWDFISNVNSITRNATLYDALKAMKFADFAVWSEARFSGMVKTALTLAVTTTLKELTP	soluble
GILAEAHGTRPDLTDQPLPDADHTWYTDGSSLLQEGQRKAGAAVTTETEVIWAKALPAGTSAQRAELIALTQALKMAEGKKLNVYTDSRYAFATAHLTSEGKEIKNKDEILALLKALFLPKRLSIIHCPGHQKGHSAEARGNRMADQAARKAAITETPDTSTLL	soluble
SLPAPTQLFFPLIRNCELSRIYGTACYCHHKHLCCSSSYIPQSRLRYTPHPAYATFCRPKENWWQYTQGRRYASTPQKFYLTPPQVNSILKANEYSFKVPEFDGKNVSSILGFDSNQLPANAPIEDRRSAATCLQTRGMLLGVFDGHAGCACSQAVSERLFYYIAVSLLPHETLLEIENAVESGRALLPILQWHKHPNDYFSKEASKLYFNSLRTYWQELIDLNTGESTDIDVKEALINAFKRLDNDISLEAQVGDPNSFLNYLVLRVAFSGATACVAHVDGVDLHVANTGDSRAMLGVQEEDGSWSAVTLSNDHNAQNERELERLKLEHPKSEAKSVVKQDRLLGLLMPFRAFGDVKFKWSIDLQKRVIESGPDQLNDNEYTKFIPPNYHTPPYLTAEPEVTYHRLRPQDKFLVLATDGLWETMHRQDVVRIVGEYLTGMHHQQPIAVGGYKVTLGQMHGLLTERRTKMSSVFEDQNAATHLIRHAVGNNEFGTVDHERLSKMLSLPEELARMYRDDITIIVVQFNSHVVGAYQNQE	not soluble
MGSDKIHHHHHHMENQDYTVRLTVQASPQEVFKQINRVTAWWTKNLQGDSEKLNDVFTVNFPGMHVSTQKLIECIPDKKVTWMVTDSHLTFIQRKTEWTDTTIQFDISRNVKHTEVLFTHKGLNPAIECYGDCAKGWDYFIKGSLFKLLTEGTGTPE	not soluble
MRTNSEIISLIQSKVEERKMSMSELARNVGIAKSTMSRYFNKTREFPLNRADDFAKALNISTEFLLGIDLNSEVDGSELLGIYRELEEQRRVIVLDTAKEQLEEQTKIINFSDKKTDIEDIFEVKGTTFAAAASGFGRGFEADDYDTYTVYTDEEPPHYDYAIGIRGDSMLPKYEQGDMLYIVDKGMSTYSGQLCIVVHNGNTYFKKVYTEHDGLRLVSLNKKYSDIFIGYPPAEDTYIKIYDVVGSFTPIEF	not soluble
MKFDPTSPSLNIMLANPRGFCAGVDRAISIVERALELFSPPIYVRHEVVHNRYVVQNLKDRGAVFVEELDQVPDNNIVIFSAHGVSQAVRAEAKARGLRVFDATCPLVTKVHLQVTRASRKGIECILIGHAGHPEVEGTMGQYDNPNGGVYLIESPADVETLEVRDPNNLCFVTQTTLSVDDTLDIISALLKRFPSIEGPRKDDICYATQNRQDAVRNLSADVDLLIVVGSKNSSNSNRLRELALKTGTQSYLVDTADDIDSSWFENITKVAVTAGASAPEVLVQQVVQAIAKLAPSVVTEVEGRKEDTVFAVPAELR	soluble
MGSDKIHHHHHHMREDFTNEIVTESLNEAGILVEKPSEIRRHFDDLQFDSRKVTKKNTLFVVKGAFKIEYLTASLLDKISGIVTSRKEKINIPNLPHWIVSNSQIALAVLSAEFFGHPEKKLKILGITGTKGKTSSTYMAYSLLDRLTNHQTAMFSTIDTFLGRGIKFKSELTTPESYELFSNMKKALDNGNKYLVMEVSSQSYLKNRVFGIHFKVGAFLNISPDHIGINEHPTFADYLAHKKMLAENSDVFVSNIDDAHGQEFIDHAKSFGAKTVSVSENKKADVNFHIKKADLDESIFYLTEKGNSQEFLLDIPGVFNIYNASVAIAMVREMGFKPEKAKKALAELQIPGRMVKIKTKSHGLIIVDYAHNGQAVTTLLTFLKSQHQGGKIIIVLGSPGDKGEDRRSQFGEVISKFVDVAYLTTDDPGTEDPHQINNQIRKAISNPNVELHEELDRSKAIQEAIKKANINDLVVLAAKGEDAFQKTNHVDVPYLGDKKVAEEFLAEIEKV	not soluble
MQVSRFLTSFHRLSTALPASTEKYYFETVKHDNRNEVVDFLNNNFRVEEPLSKAAGMTESDIQSCFDGVFERVLKNEVSILARSKQSDEIVGCMLNSVWKRNDPKKNEDEAEDFEFGGDRKGVMTIGEILNELHESFWKLRPDQHTVLHFEISSVNKNHQRQGLASKFMNWTEKKELLKVIEASSIVAEASSLANQILLSKRGYETVASTLLSSRIDVNGKQILVCDDGTDRVDLVFKELN	not soluble
